# Reference: patent publication US20170306033A1 (Amgen, published 2017)
# Positions count from the first letter of the chain named.
# T1: human PAC1 receptor (human, UniProt P41586 21-468)
# T1 sequence: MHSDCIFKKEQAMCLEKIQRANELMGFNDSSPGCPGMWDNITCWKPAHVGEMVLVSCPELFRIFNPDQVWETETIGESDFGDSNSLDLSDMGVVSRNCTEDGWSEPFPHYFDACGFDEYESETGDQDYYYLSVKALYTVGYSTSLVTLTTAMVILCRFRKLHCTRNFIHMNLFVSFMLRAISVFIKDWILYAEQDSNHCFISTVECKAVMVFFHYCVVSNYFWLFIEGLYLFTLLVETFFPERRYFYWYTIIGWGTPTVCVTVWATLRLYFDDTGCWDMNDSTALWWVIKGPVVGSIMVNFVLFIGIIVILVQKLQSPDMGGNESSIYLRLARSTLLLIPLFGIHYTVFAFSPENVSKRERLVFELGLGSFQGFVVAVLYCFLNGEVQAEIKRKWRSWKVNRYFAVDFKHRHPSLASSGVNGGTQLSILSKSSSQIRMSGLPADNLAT
# B1: iPS:326634 (bispecific antibody, human IgG2, kappa, lambda)
# light 1: DIQLTQSPSFLSASVGDRVTITCRASQSIGRSLHWYQQKPGKAPKLLIKYASQSLSGVPSRFSGSGSGTEFTLTISSLQPEDFATYYCHQSSRLPFTFGPGTKVDIKRTVAAPSVFIFPPSDEQLKSGTASVVCLLNNFYPREAKVQWKVDNALQSGNSQESVTEQDSKDSTYSLESTLTLSKADYEKHKVYACEVTHQGLSSPVTKSFNRGEC
# heavy 1: QVQLVESGAEVVKPGASVKVSCKASGFTFSRFAMHWVRQAPGQGLEWMGVISYDGGNKYYAESVKGRVTMTRDTSTSTLYMELSSLRSEDTAVYYCARGYDVLTGYPDYWGQGTLVTVSSASTKGPSVFPLAPCSRSTSESTAALGCLVKDYFPEPVTVSWNSGALTSGVHTFPAVLQSSGLYSLKSVVTVPSSNFGTQTYTCNVDHKPSNTKVDKTVERKCCVECPPCPAPPVAGPSVFLFPPKPKDTLMISRTPEVTCVVVDVSHEDPEVQFNWYVDGVEVHNAKTKPREEQFNSTFRVVSVLTVVHQDWLNGKEYKCKVSNKGLPAPIEKTISKTKGQPREPQVYTLPPSREEMTKNQVSLTCLVDGFYPSDIAVEWESNGQPENNYDTTPPMLDSDGSFFLYSDLTVDKSRWQQGNVFSCSVMHEALHNHYTQKSLSLSPGK
# light 2: not shown
# heavy 2: not shown
# B2: iPS:327688 (bispecific antibody, human IgG1, kappa, N297G)
# light 1: EIVLTQSPATLSLSPGERATLSCRASQSVGRSLHWYQQKPGQAPRLLIKYASQSLSGIPARFSGSGSGTDFTLTISSLEPEDFAVYYCHQSSRLPFTFGPGTKVDIKRTVAAPSVFIFPPSDEQLKSGTASVVCLLNNFYPREAKVQWKVDNALQSGNSQESVTEQDSKDSTYSLESTLTLSKADYEKHKVYACEVTHQGLSSPVTKSFNRGEC
# heavy 1: not shown
# light 2: EIVLTQSPGTLSLSPGERATLSCRASQSVSSGYLTWYQQKPGQAPRLLIYGASSRATGIPDRFSGSGSGTDFTLTISRLEPEDFAVYYCQQYGNSLSRFGQGTKLEIKRTVAAPSVFIFPPSDEQLKSGTASVVCLLNNFYPREAKVQWKVDNALQSGNSQESVTEQDSKDSTYSLKSTLTLSKADYEKHKVYACEVTHQGLSSPVTKSFNRGEC
# heavy 2: not shown
# B3: iPS:327698 (bispecific antibody, human IgG1, kappa, lambda, N297G)
# light 1: B2 light 1 with P100E
# heavy 1: not shown
# light 2: QSVLTQPPSVSAAPGQKVTISCSGSSSNIGNNYVSWYQQLPGTAPKLLIYDNNKRPSGIPDRFSGSKSGTSTTLGITGLQTGDEADYYCGTWDSRLSAVVFGKGTKLTVLGQPKANPTVTLFPPSSEELQANKATLVCLISDFYPGAVTVAWKADGSPVKAGVETTKPSKQSNNKYAAKSYLSLTPEQWKSHRSYSCQVTHEGSTVEKTVAPTECS
# heavy 2: QVQLVESGGGVVQPGRSLRLSCAASGFTFSSFGMHWVRQAPGKELEWVAVISFDGSIKYSVDSVKGRFTISRDNSKNTLFLQMNSLRAEDTAVYYCARDRLNYYESSGYYHYKYYGMAVWGQGTTVTVSSASTKGPSVFPLAPSSKSTSGGTAALGCLVKDYFPEPVTVSWNSGALTSGVHTFPAVLQSSGLYSLESVVTVPSSSLGTQTYICNVNHKPSNTKVDKKVEPKSCDKTHTCPPCPAPELLGGPSVFLFPPKPKDTLMISRTPEVTCVVVDVSHEDPEVKFNWYVDGVEVHNAKTKPCEEQYGSTYRCVSVLTVLHQDWLNGKEYKCKVSNKALPAPIEKTISKAKGQPREPQVYTLPPSRKEMTKNQVSLTCLVKGFYPSDIAVEWESNGQPENNYKTTPPVLKSDGSFFLYSKLTVDKSRWQQGNVFSCSVMHEALHNHYTQKSLSLSPGK
# B4: iPS:327693 (bispecific antibody, human IgG1, kappa, lambda, N297G)
# light 1: B2 light 1
# heavy 1: not shown
# light 2: B3 light 2 with K103G
# heavy 2: B3 heavy 2 with E44G
# B5: iPS:327710 (bispecific antibody, human IgG1, kappa, lambda, N297G)
# light 1: B2 light 1 with P100E
# heavy 1: not shown
# light 2: B3 light 2 with T72A
# heavy 2: B3 heavy 2 with E105D
# B6: iPS:327706 (bispecific antibody, human IgG1, kappa, lambda, N297G)
# light 1: B2 light 1
# heavy 1: not shown
# light 2: B3 light 2 with T72A, K103G
# heavy 2: B3 heavy 2 with E44G, E105D
# B7: iPS:327694 (bispecific antibody, human IgG1, kappa, lambda, N297G)
# light 1: DIQMTQSPSSLSASVGDRITITCRASQSISRYLNWYQQKPGKAPKLLIYAASSLQSGIPSRFSGSGSGTDFTLTINSLQPEDFATYFCQQSYSPPFTFGEGTKVDIKRTVAAPSVFIFPPSDEQLKSGTASVVCLLNNFYPREAKVQWKVDNALQSGNSQESVTEQDSKDSTYSLESTLTLSKADYEKHKVYACEVTHQGLSSPVTKSFNRGEC
# heavy 1: not shown
# light 2: B3 light 2
# heavy 2: B3 heavy 2
# B8: iPS:327709 (bispecific antibody, human IgG1, kappa, lambda, N297G)
# light 1: B1 light 1 with P100E
# heavy 1: not shown
# light 2: B3 light 2 with T72A
# heavy 2: B3 heavy 2 with E105D
# B9: iPS:327705 (bispecific antibody, human IgG1, kappa, lambda, N297G)
# light 1: B1 light 1
# heavy 1: not shown
# light 2: B3 light 2 with T72A, K103G
# heavy 2: B3 heavy 2 with E44G, E105D
# B10: iPS:327707 (bispecific antibody, human IgG1, kappa, lambda, N297G)
# light 1: B7 light 1
# heavy 1: not shown
# light 2: B3 light 2 with T72A
# heavy 2: B3 heavy 2 with E105D
# B11: iPS:327708 (bispecific antibody, human IgG1, kappa, lambda, N297G)
# light 1: not shown
# heavy 1: not shown
# light 2: B3 light 2 with T72A
# heavy 2: B3 heavy 2 with E105D
# B12: iPS:327697 (bispecific antibody, human IgG1, kappa, lambda, N297G)
# light 1: B1 light 1 with P100E
# heavy 1: not shown
# light 2: B3 light 2
# heavy 2: B3 heavy 2
# B13: iPS:327700 (bispecific antibody, human IgG1, kappa, lambda, N297G)
# light 1: not shown
# heavy 1: not shown
# light 2: B3 light 2 with K103G
# heavy 2: B3 heavy 2 with E44G, E370K
# B14: iPS:327696 (bispecific antibody, human IgG1, kappa, lambda, N297G)
# light 1: not shown
# heavy 1: not shown
# light 2: B3 light 2
# heavy 2: B3 heavy 2
# B15: iPS:327699 (bispecific antibody, human IgG1, kappa, lambda, N297G)
# light 1: not shown
# heavy 1: not shown
# light 2: B3 light 2 with K103G
# heavy 2: B3 heavy 2 with E44G, E370K
# Biological target: human CGRP receptor (human, UniProt Q16602 23-461; O60894 27-148)
# Sequence (Q16602 23-461 limits assumed, chain 1 of 2): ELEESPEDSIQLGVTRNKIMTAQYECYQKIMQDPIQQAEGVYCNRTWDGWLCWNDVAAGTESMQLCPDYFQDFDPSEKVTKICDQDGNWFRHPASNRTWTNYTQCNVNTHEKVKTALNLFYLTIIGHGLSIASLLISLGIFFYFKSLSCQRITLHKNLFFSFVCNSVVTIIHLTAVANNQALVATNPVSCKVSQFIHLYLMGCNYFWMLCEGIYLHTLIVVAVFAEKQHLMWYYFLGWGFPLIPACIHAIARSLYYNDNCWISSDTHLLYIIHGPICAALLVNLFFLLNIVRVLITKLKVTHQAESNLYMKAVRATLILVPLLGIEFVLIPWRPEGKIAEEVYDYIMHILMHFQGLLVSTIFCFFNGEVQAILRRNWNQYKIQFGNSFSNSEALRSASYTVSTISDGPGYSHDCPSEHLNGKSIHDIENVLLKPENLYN
# Sequence (O60894 27-148 limits assumed, chain 2 of 2): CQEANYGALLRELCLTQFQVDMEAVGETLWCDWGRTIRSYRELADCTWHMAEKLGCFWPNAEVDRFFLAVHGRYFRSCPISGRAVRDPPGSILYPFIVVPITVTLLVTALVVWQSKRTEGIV
# Test: cell-based or functional assay
row,% inhibition of human CGRPR [%],Binder
1,66,B1
2,89,B2
3,90,B3
4,76,B4
5,82,B5
6,87,B6
7,87,B7
8,82,B8
9,88,B9
10,73,B10
11,79,B11
12,88,B12
13,77,B13
14,87,B14
15,72,B15

# Biological target: T1, human PAC1 receptor
# Test: cell-based or functional assay
row,% inhibition of human PAC1 [%],Binder
1,43,B1
2,103,B2
3,96,B3
4,82,B4
5,61,B5
6,103,B6
7,75,B7
8,29,B8
9,56,B9
10,72,B10
11,18,B11
12,39,B12
13,72,B13
14,10,B14
15,92,B15
